Target: nascent 77FtsQTAG27 (E. coli) (UniProt P06136)
Experiment: cross-linking

Chain of UniProt P06136 (P06136 1-77): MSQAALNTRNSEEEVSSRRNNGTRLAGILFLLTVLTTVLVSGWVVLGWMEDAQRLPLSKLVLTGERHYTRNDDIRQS

B1: purified signal recognition particle (SRP: Ffh and 4.5S RNA) (complex)
chain: MFDNLTDRLSRTLRNISGRGRLTEDNVKDTLREVRMALLEADVALPVVREFINRVKEKAVGHEVNKSLTPGQEFVKIVRNELVAAMGEENQTLNLAAQPPAVVLMAGLQGAGKTTSVGKLGKFLREKHKKKVLVVSADVYRPAAIKQLETLAEQVGVDFFPSDVGQKPVDIVNAALKEAKLKFYDVLLVDTAGRLHVDEAMMDEIKQVHASINPVETLFVVDAMTGQDAANTAKAFNEALPLTGVVLTKVDGDARGGAALSIRHITGKPIKFLGVGEKTEALEPFHPDRIASRILGMGDVLSLIEDIESKVDRAQAEKLASKLKKGDGFDLNDFLEQLRQMKNMGGMASLMGKLPGMGQIPDNVKSQMDDKVLVRMEAIINSMTMKERAKPEIIKGSRKRRIAAGCGMQVQDVNRLLKQFDDMQRMMKKMKKGGMAKMMRSMKGMMPPGFPGR
concentration of SRP at which cross-linking saturated: 0.3 µM

Source: paper PMC2199365
